The target of this experiment is human CD40-His protein (human) (UniProt P25942). Description: SPR Biacore T200, antibody captured on Protein A, CD40-His injected.
human CD40-His protein (human), sequence (P25942 21-193 limits assumed): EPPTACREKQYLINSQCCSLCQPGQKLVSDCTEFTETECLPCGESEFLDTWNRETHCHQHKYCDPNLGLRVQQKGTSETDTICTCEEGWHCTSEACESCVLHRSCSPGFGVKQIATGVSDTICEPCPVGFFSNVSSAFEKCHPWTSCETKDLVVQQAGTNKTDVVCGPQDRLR

B1: 42p495 anti-Claudin 18.2/CD40 bispecific antibody (bispecific antibody, part only; not given: Claudin 18.2 Fab arms, constant regions, linker, V domains shown, not shown: another chain or arm of the molecule; a dimerising Fc or GST; small tags and cut ends)
VHH: PVQLVESGGNLVQPGGSLRLSCVAPGFTSRNSAMSWVRQAPGKGLEWVSTIYSGKSNTDYADSVKGRFTISTDNAKNTLYLHMNKLKSEDTAVYYCAKGAASDWYVPRDYWGQGTQVTVSS
One may read the Kd as a measure of binding affinity in units of concentration. Read a high Kd as a looser complex. The term koff denotes the rate constant with which the complex falls apart. Higher therefore signals a short-lived complex. By kon is commonly meant a measure of how fast the partners come together. Turning to B1, the dissociation constant (Kd) amounted to 0.935 µM, the koff was 0.0118 s⁻¹ and the kon worked out at 12700 M⁻¹ s⁻¹.

B2: 2p415 anti-Claudin 18.2/CD40 bispecific antibody (bispecific antibody, part only; not given: Claudin 18.2 Fab arms, constant regions, linker, V domains shown, not shown: another chain or arm of the molecule; a dimerising Fc or GST; small tags and cut ends)
VHH: QLHFVESGGGLVQPGGSLRLSCAASGFTLDHYAMGWFRQAPGKEREGVSCISGGGSTRYADSAKGRFTISRDNAKNTVYLQMNSLTPEDTAVYYCAAARLLSRNCVPRDSGSWGQGTQVTVSS
B2 returned a Kd of 0.754 µM, a dissociation rate constant (koff) of 0.0447 s⁻¹ and a kon of 59300 M⁻¹ s⁻¹.

B3: 2p551 anti-Claudin 18.2/CD40 bispecific antibody (bispecific antibody, part only; not given: Claudin 18.2 Fab arms, constant regions, linker, V domains shown, not shown: another chain or arm of the molecule; a dimerising Fc or GST; small tags and cut ends)
VHH: QLHFVESGGGLVQPGGSLRLSCAASGFTLDYYAIGWFRQAPGKEREGVSCISGGGSTRYADSVKGRFTISRDNAKNTVYLQMNSLTPEDTAVYYCAAARLLSTNCVPRDSGSWGQGTQVTVSS
For the molecule B3, the Kd worked out at 0.492 µM, the koff is 0.0177 s⁻¹ and the kon is 36100 M⁻¹ s⁻¹.

B4: 2p442 anti-Claudin 18.2/CD40 bispecific antibody (bispecific antibody, part only; not given: Claudin 18.2 Fab arms, constant regions, linker, V domains shown, not shown: another chain or arm of the molecule; a dimerising Fc or GST; small tags and cut ends)
VHH: QVQLVESGGGLVQPGGSLRLSCVASGFTLDYFAIGWFRQAPGKEREGVSCISGGGSTRYADSVKGRFTISRDNAKNTVYLQMNSLTPEDTAVYYCAAARLLSRNCVPRDSGSWGQGTQVTVSS
With B4, the Kd is 1.03 µM, the off-rate (koff) amounted to 0.045 s⁻¹ and the kon is 43700 M⁻¹ s⁻¹.

B5: 42p155 anti-Claudin 18.2/CD40 bispecific antibody (bispecific antibody, part only; not given: Claudin 18.2 Fab arms, constant regions, linker, V domains shown, not shown: another chain or arm of the molecule; a dimerising Fc or GST; small tags and cut ends)
VHH: PSQLVESGGGLVQPGGSLRLSCAASGFAFRSYTMSWVRQAPGKGLEWVSTITHNGAITTYAESAQGRFTISRDNAKNTLYLQMNSLKPEDTAVYYCAQGGGSNYYRESWGQGTQVTVSS
B5: the Kd stood at 0.76 µM, the off-rate constant (koff) was determined as 0.0374 s⁻¹ and the kon is 49100 M⁻¹ s⁻¹.

B6: 2p1294 anti-Claudin 18.2/CD40 bispecific antibody (bispecific antibody, part only; not given: Claudin 18.2 Fab arms, constant regions, linker, V domains shown, not shown: another chain or arm of the molecule; a dimerising Fc or GST; small tags and cut ends)
VHH: QVQLVESGGGLVQPGGSLRLSCAASGFSFRRYTMSWVRQAPGKGLEWVSAISDNGAITTYTESAQGRFTISRDNAKNTLYLQMNSLKPEDTAVYYCAQGGGSNYYRESWGQGTQVTVSS
Consider B6, for which the equilibrium dissociation constant (Kd) came to 0.182 µM, the koff came out at 0.0187 s⁻¹ and the association rate constant (kon) turned out to be 103000 M⁻¹ s⁻¹.

B7: 42p655 anti-Claudin 18.2/CD40 bispecific antibody (bispecific antibody, part only; not given: Claudin 18.2 Fab arms, constant regions, linker, V domains shown, not shown: another chain or arm of the molecule; a dimerising Fc or GST; small tags and cut ends)
VHH: AVQLVESGGGLVQPGGSLRLSCAASGFAFRRYTMSWVRQAPGKGLEWVSSITDNGSITTYAESAQGRFTISRDNAKNTLYLQMNSLKPEDTAVYHCAQGGGSNYYRESWGQGTQVTVSS
Take B7: the Kd turned out to be 0.0475 µM, the koff turned out to be 0.00442 s⁻¹ and the on-rate constant (kon) turned out to be 93100 M⁻¹ s⁻¹.

B8: 2p834 anti-Claudin 18.2/CD40 bispecific antibody (bispecific antibody, part only; not given: Claudin 18.2 Fab arms, constant regions, linker, V domains shown, not shown: another chain or arm of the molecule; a dimerising Fc or GST; small tags and cut ends)
VHH: QSQLVESGGGLVQPGGSLRLSCAASGFAFRRYTMSWVRQAPGKGLEWVSTITHNGSITTYAESAQGRFTISRDNAKNTLYLQMNSLKPEDTAVYYCAQGGGSNYYRESWGQGTQVTVSS
Molecule B8 showed a Kd of 0.0906 µM, a koff of 0.0084 s⁻¹ and a kon of 92700 M⁻¹ s⁻¹.

B9: 3p78 anti-Claudin 18.2/CD40 bispecific antibody (bispecific antibody, part only; not given: Claudin 18.2 Fab arms, constant regions, linker, V domains shown, not shown: another chain or arm of the molecule; a dimerising Fc or GST; small tags and cut ends)
VHH: PVQLVESGGGLVQPGGSLRLSCAASGFTFRNYAMSWVRQAPGKGLEWVSTITHNGAITTYAESAQGRFTISRDNAKNTLYLQMNSLKPEDTAVYYCAQGGGSNYYRESWGQGTQVTVSS
B9: the Kd worked out at 2.49 µM, the koff stood at 0.107 s⁻¹ and the kon was found to be 42700 M⁻¹ s⁻¹.

B10: 2p1130 anti-Claudin 18.2/CD40 bispecific antibody (bispecific antibody, part only; not given: Claudin 18.2 Fab arms, constant regions, linker, V domains shown, not shown: another chain or arm of the molecule; a dimerising Fc or GST; small tags and cut ends)
VHH: EVQVVESGGGLVQPGGSLRLTCAASGFSVDDYGIGWFRQAPGREREGVACITPNGLMMNFANTVGSVAGRFSASRDSGENTVSLQMSSLKPEDTAIYFCAHSRDDSCRGSLSDYDDWGQGTQVTVSS
In the case of B10, the Kd is 2.77 µM, the off-rate constant (koff) stood at 0.0705 s⁻¹ and the on-rate constant (kon) is 25400 M⁻¹ s⁻¹.

B11: 2p931 anti-Claudin 18.2/CD40 bispecific antibody (bispecific antibody, part only; not given: Claudin 18.2 Fab arms, constant regions, linker, V domains shown, not shown: another chain or arm of the molecule; a dimerising Fc or GST; small tags and cut ends)
VHH: AVQLVESGGGLVQPGGSLRLSCAASGFSFRNYMMNWVRQAPGKGLECLSSITSAGDITSYTESVKGRFTISRDNAKNTLYLQMNSLKPEDTAVYYCAQGGCGNYYRESWGQGTQVTVSS
Molecule B11 registered a dissociation constant (Kd) of 0.0862 µM, a koff of 0.00409 s⁻¹ and a kon of 47400 M⁻¹ s⁻¹.

B12: 2p957 anti-Claudin 18.2/CD40 bispecific antibody (bispecific antibody, part only; not given: Claudin 18.2 Fab arms, constant regions, linker, V domains shown, not shown: another chain or arm of the molecule; a dimerising Fc or GST; small tags and cut ends)
VHH: PVQLVESGGGLVQPGGSLRLSCAASGFSFRNYIMSWVRQAPGKGLEWLSSITNSGGITSYTESVKGRFTISRDNAKNTLYLQMNSLKPEDTAVYYCAQGGSDNYYRGSWGQGTQVTVSS
For B12, the equilibrium dissociation constant (Kd) was determined as 2.31 µM, the koff was 0.107 s⁻¹ and the kon was determined as 46400 M⁻¹ s⁻¹.

The values above are taken from US20240209109A1.
